Experimental data taken from patent US10414796.

Assays:
[1] = molecular target: T1, heterologous livipeptin fraction 4.4HET (HPLC fraction at 4.4 minutes from E. coli transformed with pALVP)
T1 chain: FR

[2] = molecular target: heterologous livipeptin fraction 2.2HET (HPLC fraction at 2.2 minutes from E. coli transformed with pALVP)
[3] = molecular target: heterologous livipeptin fraction 4.2HET (HPLC fraction at 4.2 minutes from E. coli transformed with pALVP)

B1: papain (protein)
chain: IPEYVDWRQKGAVTPVKNQGSCGSCWAFSAVVTIEGIIKIRTGNLNEYSEQELLDCDRRSYGCNGGYPWSALQLVAQYGIHYRNTYPYEGVQRYCRSREKGPYAAKTDGVRQVQPYNEGALLYSIANQPVSVVLEAAGKDFQLYRGGIFVGPCGNKVDHAVAAVGYGPNYILIKNSWGTGWGENGYIRIKRGTGNSYGVCGLYTSSFYPVKN
[1]
  anti-proteolytic activity (enzymatic assay): The anti-proteolytic activity of fractions 2.2, 4.2 and 4.4HET was confirmed through the enzymatic assay described previously, resulting active against papain
[2]
  anti-proteolytic activity (enzymatic assay): The anti-proteolytic activity of fractions 2.2, 4.2 and 4.4HET was confirmed through the enzymatic assay described previously, resulting active against papain
[3]
  anti-proteolytic activity (enzymatic assay): The anti-proteolytic activity of fractions 2.2, 4.2 and 4.4HET was confirmed through the enzymatic assay described previously, resulting active against papain
